Assay [1] addresses T1, hRAGE-Fc (human, UniProt Q15109 23-342, biotin label in the selections and HTRF assays).
T1 construct: extracellular domain; also called biotin labeled hRAGE-Fc; Biotin-labeled RAGE-Fc; not shown: Fc part
In words: HTRF competition, scFv vs labelled parental XT-M4 (competitor) on hRAGE. The protocol:
(§1) Increases in binding to RAGE antigen were detected with the aid of a competition assay using parental XT-M4 antibody. Both phage display and ribosome display libraries were selected for affinity improved variants by incubating with biotin labeled hRAGE-Fc, recovering binding clones using streptavidin magnetic beads and washing away non binding variants. Sequential rounds of selection were carried on decreasing antigen concentrations to drive the preferential recovery of higher affinity variants. Clones recovered after selection were subsequently screening for improved binding to hRAGE-Fc using HTRF. This is an assay that measures the decrease in fluorescence upon binding of parental europium cryptate-labeled XT-M4 to RAGE in the presence of competing test scFv antibodies. In these assays, periplasmic preparations of scFv were prepared from bacterial cultures and added in increasing concentrations to a combination of parental antibody and antigen. The ability of the scFV to compete with parental XT-M4 antibody to bind to Biotin-labeled RAGE-Fc was determined. In the presence of avidin-XL665 complex labeled XT-M4 bound to biotinylated RAGE-FC was detected by Fluorescence. Increasing amounts of scFv that competed with the XT-M4 for binding to biotinylated-RAGE-Fc was detected as a decrease in fluorescence. A sequential process of screening was used to focus in on a smaller number of clones with the greatest competition in HTRF assay

The target in assay [2] is T1, hRAGE-Fc. As to the kind of experiment: HTRF competition, scFv vs labelled parental XT-M4 (competitor) on biotin hRAGE-Fc. Here is the method: as §1
A general note: Time-resolved FRET reads energy transfer from a long-lived donor to a nearby acceptor.

The target in assay [3] is T1, hRAGE-Fc. Described as above. Here is the method:
as §1
The source holds these as a separate data set.

The target of assay [4] is T2, human RAGE expressed on CHO cells (human, UniProt Q15109 23-404).
T2 construct: whole, on cells; also called CHO-RAGE cells; cell surface expressed human RAGE
T2 sequence (Q15109 23-404): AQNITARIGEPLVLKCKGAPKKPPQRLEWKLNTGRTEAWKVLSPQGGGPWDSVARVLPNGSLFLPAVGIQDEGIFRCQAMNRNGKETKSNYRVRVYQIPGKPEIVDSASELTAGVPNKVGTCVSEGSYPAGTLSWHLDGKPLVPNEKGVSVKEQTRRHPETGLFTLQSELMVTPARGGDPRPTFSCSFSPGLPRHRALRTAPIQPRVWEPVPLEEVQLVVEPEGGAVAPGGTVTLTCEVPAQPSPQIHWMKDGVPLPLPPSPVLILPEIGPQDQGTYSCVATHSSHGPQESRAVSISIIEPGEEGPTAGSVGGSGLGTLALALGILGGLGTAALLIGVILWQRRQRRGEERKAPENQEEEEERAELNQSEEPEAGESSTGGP
As to the kind of experiment: cell ELISA on CHO-RAGE cells, A450 corrected for control CHO cells; ribosome display set. The protocol: (§2) Stably transfected Chinese Hamster Ovary (CHO) cells were engineered to express murine and human RAGE full length proteins. The murine and human RAGE cDNAs were cloned into the mammalian expression vector pSMED, linearized and transfected into CHO cells using lipofectin methods (Kaufman, R. J., 1990, Methods in Enzymology 185:537-66; Kaufman, R. J., 1990, Methods in Enzymology 185:487-511; Pittman, D. D. et al., 1993, Methods in Enzymology 222: 236). Cells were further selected in 20 nM methotrexate and cell extracts were harvested from individual clones and analyzed by SDS sodium dodecyl sulfate-polyacrylamide gel electrophoresis (SDS-PAGE) and Western blotting to confirm expression. […] Absorbance 450 nm values were corrected for the same clones binding to control CHO cells not expressing RAGE. EC50 values were calculated after curve fitting using GraphPad prism and are expressed in μg/ml.
A general note: ELISA stands for enzyme-linked immunosorbent assay.

The target of assay [5] is T3, HU-RAGE-SA (human, UniProt Q15109 23-342).
T3 construct: extracellular domain; Directly immobilized on a CM5 chip (~100 RU); also called hRAGE-SA; soluble human streptavidin-tagged RAGE; not shown: streptavidin tag (SA)
T3 sequence (Q15109 23-342): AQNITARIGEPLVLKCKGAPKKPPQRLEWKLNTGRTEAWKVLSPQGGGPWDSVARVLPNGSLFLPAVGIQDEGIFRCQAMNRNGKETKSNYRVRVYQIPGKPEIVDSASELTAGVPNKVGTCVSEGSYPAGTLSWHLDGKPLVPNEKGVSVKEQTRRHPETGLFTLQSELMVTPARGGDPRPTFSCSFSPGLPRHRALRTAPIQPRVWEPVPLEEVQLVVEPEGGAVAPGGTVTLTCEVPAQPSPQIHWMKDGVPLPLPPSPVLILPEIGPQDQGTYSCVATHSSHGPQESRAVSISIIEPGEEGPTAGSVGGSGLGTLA
As to the kind of experiment: BIAcore, 10 nM scFv-Fc over directly immobilized HU-RAGE-SA, 1:1 fit. Background: Surface plasmon resonance follows binding to a sensor surface in real time, without labels.

The target of assay [6] is T2, human RAGE expressed on CHO cells. In words: cell ELISA on CHO-RAGE cells, A450 corrected for control CHO cells; phage display set. The protocol:
as §2

Assay [7] addresses T1, hRAGE-Fc. As to the kind of experiment: IC50 of parental M4 scFv over IC50 of clone, HTRF competition. Here is the method: as §1
The target of assay [8] is T1, hRAGE-Fc. In words: IC50 of parental M4 scFv-Fc (value of the ribosome display set) over IC50 of clone, HTRF competition.
Assay [9] concerns the target T2, human RAGE expressed on CHO cells. In words: cell ELISA on CHO-RAGE cells, A450 corrected for control CHO cells. Here is the method: as §2
The target in assay [10] is T3, HU-RAGE-SA. As to the kind of experiment: BIAcore kd against parental M4 scFv-Fc.

Results on 12 molecules are retold here after patent publication US20100143349A1 (Pfizer, published 2010).

Where “and” joins values, the source holds several entries; their conditions need not be identical. Equal entries are not always repeated.

T1 sequence (Q15109 23-342): as above

B1: parental XT-M4 scFv (VH 2.0, VL 2.11), VL-VH format (scFv)
scFv: DIQMTQSPSSLSASVGDRVTITCRASQDVGIYVNWFQQKPGKAPRRLIYRATNLADGVPSRFSGSRSGTDFTLTISSLQPEDFATYYCLEFDEHPLTFGGGTKVEIKDGGGSGGGGSGGGGSSEVQLVESGGGLVQPGGSLRLSCAASGFTFNNYWMTWVRQAPGKGLEWVASIDNSGDNTYYPDSVKDRFTISRDNAKNSLYLQMNSLRAEDTAVYYCARGGDITTGFDYWGQGTLVTVSS
notes: also called M4WT
On to B1, for which the IC50 with hRAGE-Fc [1] is 33 nM; in the assay with hRAGE-Fc [2], 33 nM; with hRAGE-Fc [3], 33.2 nM.

B2: parental XT-M4 scFv-Fc fusion (Fc fusion)
chain: DIQMTQSPSSLSASVGDRVTITCRASQDVGIYVNWFQQKPGKAPRRLIYRATNLADGVPSRFSGSRSGTDFTLTISSLQPEDFATYYCLEFDEHPLTFGGGTKVEIKDGGGSGGGGSGGGGSSEVQLVESGGGLVQPGGSLRLSCAASGFTFNNYWMTWVRQAPGKGLEWVASIDNSGDNTYYPDSVKDRFTISRDNAKNSLYLQMNSLRAEDTAVYYCARGGDITTGFDYWGQGTLVTVSS
notes: Bivalent scFv-Fc made in COS cells; not shown: wild-type human IgG Fc (hinge and constant domains)
For B2, the EC50 in assay [4] amounted to 0.388 mg/L; in assay [6], 0.408 mg/L. Further, the dissociation rate constant (koff) with HU-RAGE-SA [5] was 0.0293 s⁻¹ and 0.0291 s⁻¹.

B3: S2R3A1_8G9 scFv (scFv)
scFv: DIQMTQSPSSLSASVGDRVTITCRASQDVGIYVNWFQQKPGKAPRRLIYRATNLADGVPSRFSGSRSGTDFTLTISSLQPEDFATYYCLEFDEHPLTFGGGTKVEIKDGGGSGGGGSGGGGSSEVQLVESGGGLVQPGSSLRLSCAASGFTFNNYWMTWVRQAPGKGLEWVASIDNSGDNTYYPDSVKDRFTISRDNAKNSLYLQMNSLRAEDTAVYYCARGGDITTGLDYWGQGTLVTVSS
Take B3: the IC50 with hRAGE-Fc [1] was 2.4 nM; with hRAGE-Fc [2] it was roughly 2.4 nM. Further, the “Fold gain scFv (hRAGE)” value with hRAGE-Fc [7] came to 13.8 fold.

B4: S2R4A3_5A3 scFv (scFv)
scFv: DIQMTQSPSSLSASVGDIVTITCRASQDVGIYVNWFQQKPGKAPRRLIYRATNLADGVPSRFSGSRSSTDFTLTISSLQPEDFATYYCLEFDEHPLTFGGGTKVEIKDGGGSGGGGSGGGGSSEVQLVESGGGLVQPGGSLRLSCAASGFTFNNYWMTWVRQAPGKGLEWVASIDNSGDNTYYPDSVKDRFTISRDNAKNSLYLKMNSLRAEDTAVYYCTRGGDITTGLDYWGQGTLVTVSS
As to B4, the half-maximal inhibitory concentration (IC50) in the assay with hRAGE-Fc [1] was 3 nM; in the assay with hRAGE-Fc [2], roughly 3 nM. In the assay with hRAGE-Fc [7], the “Fold gain scFv (hRAGE)” value stood at 11 fold.

B5: S2R4A3_10H6 scFv (scFv)
scFv: DIQMTQSPSSLSASVGDGVTITCQASQDVGIYVNWFQQKPGKAPRRLIYRATNLADGVPSRFSGSRSGTDFTLTISSLQPEDFATYYCLEFDEHPLTFGGGTKVEIKNGGGSGGGGSGGGGSSEVQLVESGGGLVQPGGSLRLSCAASGFTFNNYWMTWVRQAPGKGLEWVASIDNSGDNTYYPDSVKDRFTISRDNAKNSLYLQMNSLRAEDTAVYYCARGGDITTGLDYWGQGTLVTESS
notes: also called 10H6 (a)
Take B5: the IC50 with hRAGE-Fc [1] and with hRAGE-Fc [2] was 0.3 nM throughout. Further, the “Fold gain scFv (hRAGE)” value with hRAGE-Fc [7] came out at 110 fold.

B6: S2R4A3_10D8 scFv (scFv)
scFv: DIQMTQSPSSLSASVGDKVTITCRASQDVGFYVNWFQQKPGKAPRRLIYRATNLADGVPSRFSGSRSGTDFTLTISSLQPEDFATYYCLEFDEHPLTFGGGTKVEIKDGGGSGNGGSGGGGSSEVQLVESGGELVQPGGSLRLSCAASGFTFNNYWMTWVRQAPGKGLEWVASIDNSGDNTYYPDSVKDRFTISRDNAKNSLYLQMNSLRAEDTAVYYCARGGDITTGFDYWGQGTLVTVSS
notes: also called 10D8 (b)
For B6, the IC50 with hRAGE-Fc [1] and in the assay with hRAGE-Fc [2] was 2.6 nM in each case. Moreover, the “Fold gain scFv (hRAGE)” value in the assay with hRAGE-Fc [7] came out at 12.7 fold.

B7: S2R3A1_5H3 scFv (scFv)
scFv: DIQMTQSPSSLSASVGDRVTITCRASQDVGIYVNWFQQKPGKAPRRLIDRATNLADGVPSRFSGSRSGTDFTLTISSLQPEDFATYYCLEFDEHPLTFGGGTKVEIKDGGGSGGGGSGGGGSSEVLLVESGGGLVQPGGSLRLSCAASGFTFNNYWMTWVRQAPGKGLEWVASIDNSGDNTYYPDSVKDRFTISRDNAKNSLYLQMNSLRAEDTAVYYCARGGDITTGFDYWGQGTLVTVSS
Regarding B7, the half-maximal inhibitory concentration (IC50) with hRAGE-Fc [1] and in the assay with hRAGE-Fc [2] was 8.2 nM each time. In addition, in the assay with hRAGE-Fc [7], the “Fold gain scFv (hRAGE)” value worked out at 4 fold.

B8: S1R5A1_10G10 scFv (scFv)
scFv: DIQMTQSPSSLSASVGDRVTITCRASQDVGIYVNWFQQKPGKAPRRLIYRATNLADGVPSRFSGSRSGTDFTLTISSLQPEDFATYYCLEFDEHPLTFGGGTRVEIKDGGGSGGGGSGGGGSSEVQLVESGGGLVQPGGSLRLSCAASGFTFNNYWMSWVRQAPGKGLEWVASIDNSGENTYYPDSVKDRFTISRDNAKNSLYLQMNSLRAEDTAVYYCARGGDITTGFDYWGQGTLVTVSS
Consider B8, for which the half-inhibitory concentration (IC50) with hRAGE-Fc [1] and with hRAGE-Fc [2] was 16.3 nM throughout. The “Fold gain scFv (hRAGE)” value with hRAGE-Fc [7] was found to be 2 fold.

B9: S2R4A4_1G6 scFv (scFv)
scFv: DIQMTQSPSSLSASVGDRVTITCRASQDVGFYVNWFQQKPGKAPRRLIYRATNLADGVPSRFSGSRSGTDFTLTISSLQPEDFATYYCLEFDEHPLTFGGGTKVEIKDGGGSGGGGSGGGGSSEVQLVESGGGLVQPGGSLRLSCAASGFTFNNYWMTWVRQAPGKGLEWVASIDNSGDNTYYPDSVKDRFTISRDNAKNSLYLQMNSLRAEDTAVYYCARGGDITNGFDYWGQGTLVTVSS
Take B9: the IC50 in the assay with hRAGE-Fc [1] and with hRAGE-Fc [2] was 1.2 nM throughout. Further, the “Fold gain scFv (hRAGE)” value in the assay with hRAGE-Fc [7] is 21.5 fold.

B10: S2R3A1_2E6 scFv (scFv)
scFv: DIQMTQSPSSLSASVGDRVTITCRASQDVGIYVNWFQQKPGKAPRRLIYRATNLADGVPSRFSGSRSGTDFTLTISSLQPEDFATYYCLEFDEHPLTFGGGTKVEIKDGGGSGGGGSGGGGNSEVQLVESGVGLVQPGGSLRLSCAASGFTFNNYWMTWVRQAPGKGLEWVASIDNSGDNTYYPDSVKDRFTISRDNAKNSLYLQMNSLRAEDTAVYYCARGGDITNGLDYWGQGTLVTVSS
notes: also called 2E6 (c)
B10: the IC50 in the assay with hRAGE-Fc [1] and with hRAGE-Fc [2] was 1.9 nM throughout. Moreover, in the assay with hRAGE-Fc [7], the “Fold gain scFv (hRAGE)” value was found to be 17.3 fold.

B11: S1R5A1_3B3 scFv (scFv)
scFv: DIQMTQSPSSLSASVGDRVTITCRASQDVGFYVNWFQQKPGKAPRRLIYRATNLADGVPSRFSGSRSGTDFTLTISSLQPEDFATYYCLEFDEHPLTFGGGTKVEIKDGGGSGGGGSGGGGSSEVQLVESGGGLVQPGGSLRLSCAASGFTFNNYWMTWVRQAPGKGLEWVASIDNSGDNTYYPDSVKDRFTISRDNAKNSLYLQMNSLRAEDTAVYYCARGGDITTGLDYWGQGTLVTVSS
As to B11, the IC50 in the assay with hRAGE-Fc [1] and with hRAGE-Fc [2] was 2.2 nM each time. In addition, the “Fold gain scFv (hRAGE)” value with hRAGE-Fc [7] was 15 fold.

B12: 6G4 scFv-Fc fusion (Fc fusion)
chain: DIQMTQSPSSLSASVGDRVTITCRASQDVGIYVNWFQQKPGKAPRRLIYRATNLADGVPSRFSGSRSGTDFTLTISSLQPEDFATYYCLEFDEHPLTFGGGTKVEIKDGGGSGGGGSGGGGSSEVQLVESGGGLVQPGGSLRLSCAASGFTFNNYWMTWVRQAPGKGLEWVASIDNSGDNTYYPDSVKDRFTISRDNAKNSLYLQMNSLRAEDTAVYYCARGGDILDSLHFWGQGTLVTVSS
notes: Assayed separately; fold gain against the M4 value of the ribosome display set; not shown: wild-type human IgG Fc (hinge and constant domains)
In the case of B12, the “Fold gain scFv-Fc (hRAGE)” value with hRAGE-Fc [8] was 11.1 fold. The molecule also had a concentration giving a half-maximal response (EC50) in [9] of 0.172 mg/L. Besides, the koff with HU-RAGE-SA [5] was 0.00388 s⁻¹. For the same molecule, in the assay with HU-RAGE-SA [10], the “Fold change in kd” value was 7.6 fold.

Usually IC50 stands for the point on the concentration scale where inhibition reaches its midpoint. As usually defined, the EC50 is the concentration giving half of the maximal effect. A high value points to weaker potency. For orientation: koff means the rate constant with which the complex falls apart. A high value points to fast dissociation.
